Source: publication PMC4157451 (Acta Crystallographica Section D: Biological Crystallography, 2014)
Residue numbers refer to the chain shown, from its start. Names and notes keep the numbering of the source.

B1: PvuRts1I Y210F mutant (enzyme, UniProt Q52612 1-293, looked up)
chain: MSKTDYILRALSKISHKRWEHYIINRVVHTLDDPDIEFVCQQCIRKEGHLGKIYLADLLFPQLNLYLEIDEAHHDSNDARKADAVRRLDIVEATGFQEERIPASNITLSEVNKLVDEFVRLVKDKKEELENQGLFFRWDYDERYSAKKHINTGYMAVGPNSVFRYHRDALQCFGYRREGHHQSGGWALPAEVAQSIGLTGRVMVWFPRLFEAGEWKNALSADGNKITEQSLNATRNYQETWDYRIVMAHSRDELNRTLYRFLGVFAIDVDKSSDEVKVFSRVYSRVNVYRSQN
notes: PvuRts1I with a point mutation; also called Y210F variant; source: E. coli Rosetta2 (DE3), purified under identical conditions to wild-type PvuRts1I
B2: PvuRts1I N217A mutant (enzyme, UniProt Q52612 1-293, looked up)
chain: B1 chain with F210Y, N217A
notes: PvuRts1I with a point mutation; source: E. coli Rosetta2 (DE3), purified under identical conditions to wild-type PvuRts1I
B3: PvuRts1I W215A mutant (enzyme, UniProt Q52612 1-293, looked up)
chain: B1 chain with F210Y, W215A
notes: as for B2
B4: PvuRts1I A212N mutant (enzyme, UniProt Q52612 1-293, looked up)
chain: B1 chain with F210Y, A212N
notes: as for B2
B5: PvuRts1I E228K mutant (enzyme, UniProt Q52612 1-293, looked up)
chain: B1 chain with F210Y, E228K
notes: as for B2
B6: PvuRts1I N217D mutant (enzyme, UniProt Q52612 1-293, looked up)
chain: B1 chain with F210Y, N217D
notes: as for B2
B7: PvuRts1I N217K mutant (enzyme, UniProt Q52612 1-293, looked up)
chain: B1 chain with F210Y, N217K
notes: as for B2

Target: the molecule itself
Test: not stated; assembly of the purified point mutants in solution (Supplementary Fig. S3)

Protein | stoichiometry N
B1 | 2
B2 | 2
B3 | 2
B4 | 2
B5 | 2
B6 | 2
B7 | 2
